Measurements: the supplement of paper PMC10567573

B1: TOR1AIP2 (parent)
chain: YKYCDHENAAFKDVALVLTVLLEE
B2: SLC19A2 (parent)
chain: FASLRPSEPFLTPYLLGPDKNLTE

Variants of: B1
Assay: protein stability index of a GFP-peptide fusion (GPS, HEK-293T) (PSI 1-6); higher = more stable
Details: c terminus: a fixed tail appended
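Note: lentivirally expressed fusions sorted by FACS into six bins by GFP to DsRed ratio, PSI derived from sequencing read proportions per bin multiplied by bin number.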

Protein stability index of substitutions, site by site:
H6: P 2 | C 2.09 | V 2.57 | Q 3.06 | I 1.05 | L 2.49
V20: Q 1.56 | H 1.46 | D 2.21 | S 1.41 | R 2.03 | Y 3.45 | K 2.03 | E 1.73 | T 2.03 | G 2.83 | N 2.29
D5: E 3.08 | N 2.94 | Y 2.4 | L 2.43 | R 3.8 | S 2.61
F11: I 1.07 | S 2.04 | H 2.44 | T 1.49 | G 3.68 | K 1.2 | C 1.03 | Q 2.6 | A 2.73
L21: D 2.29 | P 1.73 | C 1.47 | Q 1.73 | M 2.03 | W 2.84
C4: G 1.35
A15: G 3.58 | E 1 | I 1.96 | Q 2.58 | P 2.05 | T 3.21
K2: Y 2.95 | M 1.96 | D 2.03 | L 2.81 | S 2.14 | W 1.98
E24: N 3.74 | D 2.86 | Y 2.58 | A 2.84 | F 3.27 | I 3.78 | K 2.19
E23: H 2.89 | Q 2.07 | I 2.81 | C 4.77 | A 3.33 | L 5.46
L16: T 1.5 | W 3.88 | S 2.2 | H 1.9 | N 2.88 | E 1.51 | P 2.36
V17: M 1.94 | K 1.89 | F 2.66 | S 3.6 | E 2.51 | W 2.31 | A 3.79 | N 2.3 | G 2.05 | D 2.23 | P 3.33
N8: E 1.56 | S 2.9 | R 4.51 | Y 2.07 | Q 2.7 | M 3.45 | V 1.81
L18: I 4.54 | R 2.16 | E 3.93 | Q 3.16 | G 3.58 | P 3.09 | D 4.76 | N 3.26 | Y 1.43 | T 1.96
Y3: S 2.41 | P 3.07 | V 1.83 | L 2.89 | A 3.02 | C 1.51
V14: L 4.94 | T 1 | P 1.88 | D 1.46 | A 2.48 | C 1.65 | E 1.57 | K 2.12 | R 1.54
Y1: R 2.28 | N 2.13 | K 2.68 | C 2.66 | H 1.04 | P 1.71 | L 2.17 | T 2.48 | D 1.03
D13: S 2.91 | F 2.83 | L 3.1 | G 1.75 | T 2.09 | Q 2.66 | Y 4.52 | E 2.46 | C 2.1
A9: C 4.55 | W 3.05 | Q 3.72 | E 1.75 | I 3.88
K12: Q 3.33 | D 1.81 | Y 2.97 | C 4.02 | A 3.1
A10: W 3.86 | M 1.93 | L 2.83 | S 1.98 | R 1.01 | I 2.35
L22: A 3.63 | S 1.12 | N 3.49 | Y 3.23 | H 2.53
E7: Q 2.52 | R 2.5 | S 2.31 | N 3.84 | I 3.39 | P 3.94
T19: M 2.87 | P 1.74 | R 4.55 | H 1.67 | C 5.95 | K 4.43 | L 3.88 | D 1.3 | F 2.68

Variants of: B2
Assay: as above
Details: c terminus: a fixed tail appended

Protein stability index: each site, then its substitutions
P18: F 1.54 | H 2.53 | S 1.87 | R 1.55 | G 1.51 | Y 1.61 | M 2.06 | V 1.41 | L 1.8 | W 1.76 | Q 2 | I 2.31 | N 1.48 | T 1.4 | A 1.65 | K 2.12 | C 1.98 | E 2.27 | D 2
K20: T 1.45 | E 1.94 | A 2.14 | Q 2.05 | Y 1.28 | I 2.44 | D 2.1 | P 1.92 | R 1.94 | H 1.97 | C 1.18 | V 1.84 | M 1.98 | F 1.62 | G 2.04 | S 2.29 | L 2.1 | W 2.04 | N 2.13
N21: V 2.51 | E 2.02 | T 1.56 | R 1.95 | G 1.52 | W 2.31 | M 2.39 | I 2.02 | H 1.29 | A 1.51 | Q 1.88 | D 1.84 | F 1.67 | C 1.33 | L 1.87 | P 1.31 | S 1.47 | K 1.6 | Y 2.42
T23: P 2.31 | Q 3.16 | A 2.24 | F 1.3 | M 1.52 | I 1.58 | K 2.09 | C 2.12 | R 1.42 | Y 2.27 | E 2.02 | S 1.7 | D 1.97 | H 2.8 | G 1.86 | N 1.84 | V 1.29 | W 1.65 | L 1.64
D19: F 1.87 | H 1.57 | T 1.9 | K 1.58 | N 1.46 | G 1.75 | L 1.58 | P 1.67 | E 2.24 | R 2.25 | I 1.92 | Y 2.89 | M 2.1 | A 1.56 | C 1.44 | V 2.16 | S 2.5 | W 3.08 | Q 1.57
E24: H 1.93 | G 2.15 | P 2.41 | K 1.96 | Q 2.06 | S 1.94 | D 2.01 | R 2.39 | M 2.03 | W 2.43 | A 1.89 | L 1.27 | I 2.1 | C 2.46 | V 1.49 | F 2.45 | T 1.8 | N 1.38 | Y 2.08
L22: A 2.1 | E 2.03 | K 2.34 | C 1.96 | T 2.25 | V 1.52 | W 1.98 | G 2.04 | M 1.59 | R 1.92 | I 1.86 | D 2.65 | Y 1.84 | N 2.35 | H 2.16 | S 2.1 | Q 1.99 | P 1.86 | F 1.62
L16: V 1.79 | Q 1.8 | T 1.8 | I 1.51 | G 2.85 | Y 1.3 | N 2.12 | W 2.14 | R 2.44 | H 2.86 | M 1.79 | S 2.56 | P 1.79 | K 2.27
G17: A 1.81 | S 2.41 | K 2.23 | I 4.07 | W 2.1 | T 1.96 | E 1.86 | Y 1.79 | P 2.62 | L 2.22 | N 2.06 | F 2.15 | C 1.05 | Q 2.23 | V 1.89 | H 1.75 | M 1.7 | D 1.59 | R 1.99
